Where two headings read alike, the source gives them in different places. Each block holds one binder with its values, some of them ahead of it.
Key:
Experiment in all cases: ELISA
[1] = biological target: T1, hPD-L1-hIGg1Fc (SinoBiological) (human, UniProt Q9NZQ7 19-238)
[2] = biological target: T1, hPD-L1-hIGg1Fc (SinoBiological); remark: listed apart in the source
[3] = biological target: T1, hPD-L1-hIGg1Fc (SinoBiological); remark: listed apart in the source
[4] = biological target: T1, hPD-L1-hIGg1Fc (SinoBiological); remark: listed apart in the source

T1 sequence (Q9NZQ7 19-238): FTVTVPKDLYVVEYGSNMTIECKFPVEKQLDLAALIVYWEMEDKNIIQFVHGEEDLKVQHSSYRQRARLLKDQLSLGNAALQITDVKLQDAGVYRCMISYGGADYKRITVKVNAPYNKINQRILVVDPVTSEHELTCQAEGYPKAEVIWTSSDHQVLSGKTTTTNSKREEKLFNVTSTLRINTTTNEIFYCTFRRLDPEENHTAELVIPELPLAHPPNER

EC50 [1]: 0.0394 nM
B1: PD-1m-aEGFRL (bispecific antibody)
heavy: QVQLQESGPGLVKPSETLSLTCTVSGGSVSSGDYYWTWIRQSPGKGLEWIGHIYYSGNTNYNPSLKSRLTISIDTSKTQFSLKLSSVTAADTAIYYCVRDRVTGAFDIWGQGTMVTVSSASTKGPSVFPLAPSSKSTSGGTAALGCLVKDYFPEPVTVSWNSGALTSGVHTFPAVLQSSGLYSLSSVVTVPSSSLGTQTYICNVNHKPSNTKVDKKVEPKSCDKTHTCPPCPAPPVAGPSVFLFPPKPKDTLMISRTPEVTCVVVDVSHEDPEVKFNWYVDGVEVHNAKTKPREEQYNSTYRVVSVLTVLHQDWLNGKEYKCKVSNKGLPSSIEKTISKAKGQPREPQVYTLPPSRDELTKNQVSLTCLVKGFYPSDIAVEWESNGQPENNYKTTPPVLDSDGSFFLYSKLTVDKSRWQQGNVFSCSVMHEALHNHYTQKSLSLSPGK
light: not shown

EC50 [1]: 1.54 nM
B2: PD-1-aEGFRL (bispecific antibody)
heavy: B1 heavy
light: not shown

EC50 [2]: 0.068 nM
EC50 [3]: 0.068 nM
B3: aPD-L1 (antibody, V domains shown)
VH: EVQLLESGGGLVQPGGSLSLSCAASGFSFSSGYDMCWVRQAPGKGLEWIACIAAGSAGITYDANWAKGRFTISRDNSKNTLYLQMNSLRAEDTAVYYCARSAFSFDYAMDLWGQGTLVTVSS
VL: DIQMTQSPSTLSASVGDRVTITCQASQSISSHLNWYQQKPGKAPKLLIYKASTLASGVPSRFSGSGSGTEFTLTISSLQPDDFATYYCQQGYSWGNVDNVFGGGTKVTVL

EC50 [4]: 0.0258 nM
B4: PD-1m-aGPC-3L (bispecific antibody)
heavy: QVQLVQSGAEVKKPGASVKVSCKASGYTFTDYEMHWVRQAPGQGLEWMGALDPKTGDTAYSQKFKGRVTLTADKSTSTAYMELSSLTSEDTAVYYCTRFYSYTYWGQGTLVTVSSASTKGPSVFPLAPSSKSTSGGTAALGCLVKDYFPEPVTVSWNSGALTSGVHTFPAVLQSSGLYSLSSVVTVPSSSLGTQTYICNVNHKPSNTKVDKKVEPKSCDKTHTCPPCPAPPVAGPSVFLFPPKPKDTLMISRTPEVTCVVVDVSHEDPEVKFNWYVDGVEVHNAKTKPREEQYNSTYRVVSVLTVLHQDWLNGKEYKCKVSNKGLPSSIEKTISKAKGQPREPQVYTLPPSRDELTKNQVSLTCLVKGFYPSDIAVEWESNGQPENNYKTTPPVLDSDGSFFLYSKLTVDKSRWQQGNVFSCSVMHEALHNHYTQKSLSLSPGK
light: LDSPDRPWNPPTFSPALLVVTEGDNATFTCSFSNTSESFVLNWYRMSPSNQTDKLAAFPEDRSQPGQDSRFRVTQLPNGRDFHMSVVRARRNDSGTYLCGAISLAPKVQIKESLRAELRVTERRAEVPTAHPSPSPRPAGQFQGGGGSGGGGSGGGGSGDVVMTQSPLSLPVTPGEPASISCRSSQSLVHSNRNTYLHWYLQKPGQSPQLLIYKVSNRFSGVPDRFSGSGSGTDFTLKISRVEAEDVGVYYCSQNTHVPPTFGQGTKLEIKRTVAAPSVFIFPPSDEQLKSGTASVVCLLNNFYPREAKVQWKVDNALQSGNSQESVTEQDSKDSTYSLSSTLTLSKADYEKHKVYACEVTHQGLSSPVTKSFNRGEC

Source: patent publication US20230287081A1 (published 2023)
